Results on six molecules are retold here after patent publication US20100333236A1.

What all share (assay): cell-based or functional assay
Assay [1] addresses cysteine-like cathepsin-B protease activities from Leptinotarsa decemlineata (Colorado potato beetle) gut extracts (Leptinotarsa decemlineata).
Assay [2] addresses cysteine-like cathepsin-B protease activities from extracts of adults of Acyrthosiphon pisum (pea aphid) (Acyrthosiphon pisum).
The target of assay [3] is cysteine-like cathepsin-L protease activities from Leptinotarsa decemlineata (Colorado potato beetle) gut extracts (Leptinotarsa decemlineata).
Assay [4] concerns the target cysteine-like cathepsin-L protease activities from extracts of adults of Acyrthosiphon pisum (pea aphid) (Acyrthosiphon pisum).
Assay [5] addresses cysteine-like cathepsin-L protease activities from extracts of adults of Bemisia tabaci (sweetpotato whitefly) (Bemisia tabaci).
The target of assay [6] is cysteine-like cathepsin-L protease activities from extracts of adults of Tetranychus urticae (spider mites) (Tetranychus urticae).
For assay [7], the target named is cysteine-like cathepsin-L protease activities from extracts of adults of Tribolium castaneum (red flour beetle) (Tribolium castaneum).
The target of assay [8] is serine-like chymotrypsin protease activities from Sesamia nonagrioides (Mediterranean corn borer) larval gut extracts (Sesamia nonagrioides).
Assay [9] concerns the target serine-like chymotrypsin protease activities from Spodoptera littoralis (cotton leafworm) larval gut extracts (Spodoptera littoralis).
The target in assay [10] is serine-like elastase protease activities from Ostrinia nubilalis (European corn borer) larval gut extracts (Ostrinia nubilalis).
The target of assay [11] is serine-like trypsin protease activities from Ostrinia nubilalis (European corn borer) larval gut extracts (Ostrinia nubilalis).
Assay [12] has as its target serine-like trypsin protease activities from Spodoptera littoralis (cotton leafworm) larval gut extracts (Spodoptera littoralis).
Assay [13] concerns the target serine-like trypsin protease activities from Sesamia nonagrioides (Mediterranean corn borer) larval gut extracts (Sesamia nonagrioides).
Assay [14] concerns the target cysteine-like cathepsin-B protease activities from Leptinotarsa decemlineata (Colorado potato beetle) gut extracts (Leptinotarsa decemlineata). This is another data set of the same source.
Assay [15] addresses cysteine-like cathepsin-B protease activities from extracts of adults of Acyrthosiphon pisum (pea aphid) (Acyrthosiphon pisum). The source holds these as a separate data set.
Assay [16] deals with cysteine-like cathepsin-L protease activities from Leptinotarsa decemlineata (Colorado potato beetle) gut extracts (Leptinotarsa decemlineata). This is another data set of the same source.
Assay [17] has as its target cysteine-like cathepsin-L protease activities from extracts of adults of Acyrthosiphon pisum (pea aphid) (Acyrthosiphon pisum). The source holds these as a separate data set.
The target of assay [18] is cysteine-like cathepsin-L protease activities from extracts of adults of Bemisia tabaci (sweetpotato whitefly) (Bemisia tabaci). This is another data set of the same source.
The target in assay [19] is cysteine-like cathepsin-L protease activities from extracts of adults of Tetranychus urticae (spider mites) (Tetranychus urticae). This is another data set of the same source.
Assay [20] addresses cysteine-like cathepsin-L protease activities from extracts of adults of Tribolium castaneum (red flour beetle) (Tribolium castaneum). The source holds these as a separate data set.
In assay [21] the target is serine-like chymotrypsin protease activities from Spodoptera littoralis (cotton leafworm) larval gut extracts (Spodoptera littoralis). This is another data set of the same source.
Assay [22] concerns the target serine-like trypsin protease activities from Ostrinia nubilalis (European corn borer) larval gut extracts (Ostrinia nubilalis). The source holds these as a separate data set.
Assay [23] concerns the target serine-like trypsin protease activities from Sesamia nonagrioides (Mediterranean corn borer) larval gut extracts (Sesamia nonagrioides). This is another data set of the same source.
Assay [24] deals with serine-like trypsin protease activities from Spodoptera littoralis (cotton leafworm) larval gut extracts (Spodoptera littoralis). This is another data set of the same source.

Values joined by “and” are separate entries in the source; they are usually repeats but may differ in a detail not shown here. Equal entries are not always repeated. Where two headings read alike, the source gives them in different places. Some results are limits rather than exact numbers.

For the molecule “AtSerpin1 mutant IKLA (SEQ ID NO:3) (from UniProt Q9S7T8 1-391)”, in assay [1], the % Inhibition, Cathepsin-B, 1.25 µM serpin was determined as 62%; the % Inhibition, Cathepsin-B, 5 µM serpin came to 77%; the % Inhibition, Cathepsin-B, 10 µM serpin was 70%. Also, in assay [2], the % Inhibition, Cathepsin-B, 1.25 µM serpin was 24%; the % Inhibition, Cathepsin-B, 5 µM serpin was found to be 31%; the % Inhibition, Cathepsin-B, 10 µM serpin was determined as 36%. Moreover, in assay [3], the % Inhibition, Cathepsin-L, 1.25 µM serpin came to 18%; the % Inhibition, Cathepsin-L, 5 µM serpin is 44%; the % Inhibition, Cathepsin-L, 10 µM serpin amounted to 66%. In assay [4], this molecule came in with a % Inhibition, Cathepsin-L, 1.25 µM serpin of 24%; a % Inhibition, Cathepsin-L, 5 µM serpin of 34%; a % Inhibition, Cathepsin-L, 10 µM serpin of 45%. Besides, in assay [5], the % Inhibition, Cathepsin-L, 0.16 µM serpin came to 3%; the % Inhibition, Cathepsin-L, 0.31 µM serpin was found to be 10%; the % Inhibition, Cathepsin-L, 0.63 µM serpin came out at 15%; the % Inhibition, Cathepsin-L, 1.25 µM serpin was 27%. In assay [5], this molecule had a % Inhibition, Cathepsin-L, 2.5 µM serpin of 38%; a % Inhibition, Cathepsin-L, 5 µM serpin of 48%; a % Inhibition, Cathepsin-L, 10 µM serpin of 60%; a % Inhibition, Cathepsin-L, 20 µM serpin of 70%. In addition, in assay [5], the IC50 of cathepsin-L activity inhibition (FIG. 6) stood at 5 µM; the fold activity against AtSerpin1, cathepsin-L inhibition (FIG. 6) was 5 times and 10 times. Further, in assay [6], the % Inhibition, Cathepsin-L, 0.02 µM serpin turned out to be 9%; the % Inhibition, Cathepsin-L, 0.04 µM serpin turned out to be 11%; the % Inhibition, Cathepsin-L, 0.08 µM serpin amounted to 12%; the % Inhibition, Cathepsin-L, 0.16 µM serpin stood at 22%. Also, in assay [6], the % Inhibition, Cathepsin-L, 0.31 µM serpin amounted to 33%; the % Inhibition, Cathepsin-L, 0.63 µM serpin came out at 44%; the % Inhibition, Cathepsin-L, 1.25 µM serpin was 51%; the % Inhibition, Cathepsin-L, 2.5 µM serpin was 59%. In assay [6], this molecule gave a % Inhibition, Cathepsin-L, 5 µM serpin of 71%; a % Inhibition, Cathepsin-L, 10 µM serpin of 75%; a % Inhibition, Cathepsin-L, 20 µM serpin of 79%; an IC50 of cathepsin-L activity inhibition (FIG. 7) of under 1 µM. In assay [6], the fold activity against AtSerpin1, cathepsin-L inhibition (FIG. 7) was 2 times and 3 times. In assay [7], the % Inhibition, Cathepsin-L, 0.08 µM serpin amounted to 12%; the % Inhibition, Cathepsin-L, 0.16 µM serpin was 32%; the % Inhibition, Cathepsin-L, 0.31 µM serpin worked out at 57%; the % Inhibition, Cathepsin-L, 0.63 µM serpin is 63%. Further, in assay [7], the % Inhibition, Cathepsin-L, 1.25 µM serpin came to 68%; the % Inhibition, Cathepsin-L, 2.5 µM serpin came out at 68%; the % Inhibition, Cathepsin-L, 5 µM serpin turned out to be 72%; the % Inhibition, Cathepsin-L, 10 µM serpin turned out to be 70%. In assay [7], this molecule registered a % Inhibition, Cathepsin-L, 20 µM serpin of 76%; an IC50 of cathepsin-L activity inhibition (FIG. 4) of 0.2 to 0.3 µM; a fold activity against AtSerpin1, cathepsin-L inhibition (FIG. 4) of over 10 times. In assay [8], the % Inhibition, Chymotrypsin, 5 µM serpin was 32% and the % Inhibition, Chymotrypsin, 10 µM serpin amounted to 70%. In addition, in assay [9], the % Inhibition, Chymotrypsin, 1.25 µM serpin came out at 11%; the % Inhibition, Chymotrypsin, 5 µM serpin came to 41%; the % Inhibition, Chymotrypsin, 10 µM serpin was 56%. For the same molecule, in assay [10], the % Inhibition, Elastase, 2 µM serpin turned out to be 21%. This molecule also yielded a % Inhibition, Trypsin, 2 µM serpin in assay [11] of 51%. In assay [12], this molecule gave a % Inhibition, Trypsin, 1.25 µM serpin of 18%; a % Inhibition, Trypsin, 5 µM serpin of 32%; a % Inhibition, Trypsin, 10 µM serpin of 40%.

In the case of “AtSerpin1 mutant IKLK (SEQ ID NO:7) (from UniProt Q9S7T8 1-391)”, in [2], the % Inhibition, Cathepsin-B, 5 µM serpin was found to be 49% and the % Inhibition, Cathepsin-B, 10 µM serpin came to 66%. For the same molecule, in [12], the % Inhibition, Trypsin, 5 µM serpin turned out to be 64% and the % Inhibition, Trypsin, 10 µM serpin was found to be 69%.

As to “AtSerpin1 mutant IRPR (SEQ ID NO:5) (from UniProt Q9S7T8 1-391)”, the % Inhibition, Cathepsin-B, 1.25 µM serpin in assay [2] was 32%. Moreover, the values for the % Inhibition, Cathepsin-L, 1.25 µM serpin in assay [4], in assay [6] and in assay [7] were 31%, 11% and 73%, respectively. In assay [13], the % Inhibition, Trypsin, 1.25 µM serpin was 38%.

In assay [2], “AtSerpin1 mutant VRPR (SEQ ID NO:4) (from UniProt Q9S7T8 1-391)” displayed a % Inhibition, Cathepsin-B, 1.25 µM serpin of 27%; a % Inhibition, Cathepsin-B, 5 µM serpin of 14%; a % Inhibition, Cathepsin-B, 10 µM serpin of 23%. For the same molecule, in assay [4], the % Inhibition, Cathepsin-L, 1.25 µM serpin worked out at 16%. Also, the % Inhibition, Cathepsin-L, 1.25 µM serpin in assay [6] amounted to 22%. This molecule also yielded a % Inhibition, Cathepsin-L, 1.25 µM serpin in [7] of 38%. In assay [12], this molecule yielded a % Inhibition, Trypsin, 5 µM serpin of 33% and a % Inhibition, Trypsin, 10 µM serpin of 34%.

Consider “AtSerpin1 mutant WRHR (SEQ ID NO:6) (from UniProt Q9S7T8 1-391)”, for which the % Inhibition, Cathepsin-B, 1.25 µM serpin in assay [2] is 26%. In assay [6], the % Inhibition, Cathepsin-L, 1.25 µM serpin is 8%.

B1: AtSerpin1 (wild-type Serpin1 from Arabidopsis thaliana, At1g47710), recombinant HIS6-tagged (protein, not shown: small tags and cut ends)
chain: MDVRESISLQNQVSMNLAKHVITTVSQNSNVIFSPASINVVLSIIAAGSAGATKDQILSFLKFSSTDQLNSFSSEIVSAVLADGSANGGPKLSVANGAWIDKSLSFKPSFKQLLEDSYKAASNQADFQSKAVEVIAEVNSWAEKETNGLITEVLPEGSADSMTKLIFANALYFKGTWNEKFDESLTQEGEFHLLDGNKVTAPFMTSKKKQYVSAYDGFKVLGLPYLQGQDKRQFSMYFYLPDANNGLSDLLDKIVSTPGFLDNHIPRRQVKVREFKIPKFKFSFGFDASNVLKGLGLTSPFSGEEGLTEMVESPEMGKNLCVSNIFHKACIEVNEEGTEAAAASAGVIKLRGLLMEEDEIDFVADHPFLLVVTENITGVVLFIGQVVDPLH
Regarding B1, in assay [14], the % Inhibition, Cathepsin-B, 1.25 µM serpin stood at 40%; the % Inhibition, Cathepsin-B, 5 µM serpin worked out at 47%; the % Inhibition, Cathepsin-B, 10 µM serpin was found to be 46%; the concentration for 50% inhibition of cathepsin-B activity (FIG. 3) was over 10 µM. In [15], this molecule yielded a % Inhibition, Cathepsin-B, 1.25 µM serpin of 50%; a % Inhibition, Cathepsin-B, 5 µM serpin of 55%; a % Inhibition, Cathepsin-B, 10 µM serpin of 55%; a concentration for 50% inhibition of cathepsin-B activity (FIG. 5) of 1 µM. Further, in assay [16], the % Inhibition, Cathepsin-L, 1.25 µM serpin came to 4%; the % Inhibition, Cathepsin-L, 5 µM serpin came to 34%; the % Inhibition, Cathepsin-L, 10 µM serpin amounted to 48%; the concentration for 50% inhibition of cathepsin-L activity (fluorometric substrates, FIG. 3) came out at 10 µM. In assay [17], this molecule returned a % Inhibition, Cathepsin-L, 1.25 µM serpin of 42%; a % Inhibition, Cathepsin-L, 5 µM serpin of 42%; a % Inhibition, Cathepsin-L, 10 µM serpin of 39%; an inhibition of cathepsin-L activity, plateau (FIG. 5) of 40%. Moreover, in assay [18], the % Inhibition, Cathepsin-L, 2.5 µM serpin stood at 7%; the % Inhibition, Cathepsin-L, 5 µM serpin was 20%; the % Inhibition, Cathepsin-L, 10 µM serpin is 34%; the % Inhibition, Cathepsin-L, 20 µM serpin was 43%. Besides, the % inhibition of cathepsin-L activity at 20 µM serpin (FIG. 6) in [18] amounted to 45%. In assay [19], this molecule yielded a % Inhibition, Cathepsin-L, 0.16 µM serpin of 10%; a % Inhibition, Cathepsin-L, 0.31 µM serpin of 13%; a % Inhibition, Cathepsin-L, 0.63 µM serpin of 17%; a % Inhibition, Cathepsin-L, 1.25 µM serpin of 32%. In addition, in assay [19], the % Inhibition, Cathepsin-L, 2.5 µM serpin was determined as 48%; the % Inhibition, Cathepsin-L, 5 µM serpin turned out to be 58%; the % Inhibition, Cathepsin-L, 10 µM serpin is 67%; the % Inhibition, Cathepsin-L, 20 µM serpin came out at 73%. The concentration for 50% inhibition of cathepsin-L activity (FIG. 7) in assay [19] was 2 µM. Further, in assay [20], the % Inhibition, Cathepsin-L, 2.5 µM serpin stood at 16%; the % Inhibition, Cathepsin-L, 5 µM serpin was found to be 68%; the % Inhibition, Cathepsin-L, 10 µM serpin came to 73%; the % Inhibition, Cathepsin-L, 20 µM serpin worked out at 76%. Moreover, in assay [20], the IC50 of cathepsin-L activity inhibition (FIG. 4) worked out at 4 µM. In [21], this molecule came in with a % Inhibition, Chymotrypsin, 1.25 µM serpin of 10%; a % Inhibition, Chymotrypsin, 5 µM serpin of 31%; a % Inhibition, Chymotrypsin, 10 µM serpin of 40%; a concentration for 50% inhibition of chymotrypsin activity (FIG. 1) of 10 to 20 µM. In assay [22], the % Inhibition, Trypsin, 2 µM serpin was 28%. Further, in assay [23], the % Inhibition, Trypsin, 1.25 µM serpin stood at 90%; the % Inhibition, Trypsin, 5 µM serpin was 97%; the % Inhibition, Trypsin, 10 µM serpin was determined as 98%; the concentration for 50% inhibition of trypsin activity (FIG. 2) was 0.1 µM. In assay [24], this molecule yielded a % Inhibition, Trypsin, 1.25 µM serpin of 52%; a % Inhibition, Trypsin, 5 µM serpin of 83%; a % Inhibition, Trypsin, 10 µM serpin of 90%; a concentration for 50% inhibition of trypsin activity (fluorometric substrate, FIG. 1) of 1 µM.
